Test results taken from the DeepSol protein solubility set.

Experiment: soluble on expression in E. coli; label from the status in PepcDB or PDB records

Sequence	soluble on expression in E. coli
MAIKFQYNKTSLQQQEKQLKMRERTLPTIKSKESALRLEVKRTKDEVERLERQLEEEIVGYRSMVSLWNEFKPDLISVEGVKLSAKKVAGVVVPVLDDISYTIKPFSLFNAPSWFAEGIDLLKNLAHTGIEAEFLGLKLEFLEYARKKTTQKVNLFEKVQIPGYKDAIRKIKRYLEDEESLSKSSQKIMRANMEKRNKGEEVMA	not soluble
CQDYIPVKDQKVVDLMSRDVVAIDASDRLVDVVEFLCIDKEQLYPTSSMGIATRLTSLSLEERAKSMKVSKPQVLPVLENGQMVGVVTRQEVLKALRPVFGERLNLVEDKALETA	not soluble
MGGDSVAIFTADMSVSGELRNDIELHLRRGIESDALRLVYLPEVDLRTGDIVGTEALVRWQHPTRGLLAPGCFIPVAESINLAGELDRWVLRRACNEFSEWQSAGLGHDALLRINVSAGQLVTGGFVDFVADTIGQHGLDASSVCLEITENVVVQDLHTARATLARLKEVGVHIAIDDFGTGYSAISLLQTLPIDTLKIDKTFVRQLGTNTSDLVIVRGIMTLAEGFQLDVVAEGVETEAAARILLDQRCYRAQGFLFSRPVPGEAMRHMLSARRLPPTCILEHHHHHH	not soluble
MGSDKIHHHHHHMTLPMPEKFWDIRIHKVDIHPGVTGLCVGYERGVWRKDQFVRHAMDWLPEFALKESELKGVDSANMVQMVRDAATAIYKSEKFHKRGEFGELFLHMAKRQVFNSIPAVSKIYYKTARNDTVKGFDSVHVVEAEDGLELWLGEVKFYKDLNSAVADVVKELQGHTQTDYLRDEFNLIMNKVDRDWEHYETMKRLMSKNTSLDEVFKRACIPVLLTYESEAICQCSVCDEEYKKLFINEIREAYKLFSSKKLPTDIRIHLFLFPLASKPELIKALDKKLKLWQQL	not soluble
MTTKKFRMEDVGLSKLKVEKNPKDVKQTEWKSVLPNEVYRVARESGTETPHTGGFNDHFEKGRYVCLCCGSELFNSDAKFWAGCGWPAFSESVGQDANIVRIVDRSHGMHRTEVRCKTCDAHLGHVFNDGPKETTGERYCINSVCMAFEKKD	soluble
MVAHDETGGLLPIKRTIRVLDVNNQSFREQEEPSNKRVRPLARVTSLANLISPVRNGAVRRFGQTIQSFTLRGDHRSPASAQKFSSRSTVPTPAKRRSSALWSEMLDITMKESLTTREIRRQEAIYEMSRGEQDLIEDLKLARKAYHDPMLKLSIMSEEELTHIFGDLDSYIPLHEDLLTRIGEATKPDGTVEQIGHILVSWLPRLNAYRGYCSNQLAAKALLDQKKQDPRVQDFLQRCLESPFSRKLDLWSFLDIPRSRLVKYPLLLKEILKHTPKEHPDVQLLEDAILIIQGVLSDINLKKGESECQYYIDKLEYLDEKQRDPRIEASKVLLCHGELRSKSGHKLYIFLFQDILVLTRPVTRNERHSYQVYRQPIPVQELVLEDLQDGDVRMGGSFRGAFSNSEKAKNIFRIRFHDPSPAQSHTLQANDVFHKQQWFNCIRAAIAPFQSAGSPPELQGLPELHEECEGNHPSARKLTAQRRASTVSSVTQVEVDENAYRCGSGMQMAEDSKSLKTHQTQPGIRRARDKALSGGKRKETLV	soluble
MWLFEESAVGFCSNSGVIDNKHAGYTGTGFIDTENAVGASIVWSLSAASAKTYTAQIRFGNGGTSARRATVVVNDSQIKTLDFPTNSNWTQWQTVNVDIPLKAGTNSIKLVAETADGLANIDSIRVTGNGITPAACPLEHHHHHH	soluble
MGSDKIHHHHHHGMDKLSTKNYHTLLEVINDQEMIASPNTQLDSQVIANSSPFGGEVVTNRSKNIDGYTVEWSNLRSRYSFFRNSIDWNEVYPGSYYSSKNFYEYNRQTKQKVASFYNPAITNYYGGIKNELSELDKMENQVAEVAISFDKPYPYEEVRKMLPSNVNLVWLYVYSETVNEAEGPSGTLPYGFQLSMDDQNEIFDPENDKQHFFETLEKSPLFADNQEGQKFIQQNKNKKVEKLPIWGVMLTGQTKNFKALQNEPFVRGASIGVTAPIVPYIQPEK	not soluble
GGGSCYFIPNEGVPGDSTRKCMDLKGNKHPINSEWQTDNCETCTCYETEISCCTLVSTPVGYDKDNCQRIFKKEDCKYIVVEKKDPKKTCSVSEWII	soluble
MGSDKIHHHHHHMQEQINLSEWRERARSFEQSANKVVLGLERQVRALTIAIFSRGHVLLEGDVGVGKTTLLKAASRLLGGAYQRIEGAIDLMPGDFLYHAYIDQNGQPAVAPGPLLRHEENLAVFFFNEINRARPQAHSLLLRLMAERSVNAFNRDYAFPHLTVFADRNGLEREETFELPAAARDRFFMEVSVTAPEDKELQRDLMFSTRFHDADALIETLEPGLVPYDKLNAVSAAIQESVRSELALQDYAVNIWQALRHPERIGIEIEDVDISRLVAGGASPRGMAMLMRAARTRAWLEGRDYLTPDDIRAVFPETVGHRVFFTPAYELRRDEIAPALLSGVLNKIPAP	not soluble
MSLNITPHDQTGSQLQDSTLSQRAIQTVRYINNINDWRYNNPSQKDGVIPDSAFGWSSLPELHNVLQADRVYVYQPDQPGLMSALLAQSRHSALVGKVVARRLLDSFGNDMQVNVPDSIADGSLVYLNEGHHHHHH	soluble
MSTAEQIATLENRINELELENKRLHETVAYLTRKLYGRSSEKTSALSVGQVSLFDEAEVYAVPQAPEPDLKEVQGYIRRKYKGQRTDLLKDIPHDKRLCTLAEEDRYCEACGTDLVSVGKEFIRTEIEFIPAKIRVIDYYRETFECRTCRKNGEPYMEKSPMPYPVIQHSMASPSTVAWIMHQKFVNHLPLYRQENEWKMLGVNLKRETMSNWILAAARDWLMPLVDLMHKKLLQEKYLHADETTVQVLNEEGRSNTTNSYMWVYSSGKYCKKQIRLFQYQPGRNGKYPQEFLKGFSGFLHTDAYSGYKKVPEITRCMCWTHLRRYFRDALPKDTQSPEATIPSQGIRFCNKLFEIEETLEKLTQEQRRLERLKQETPVLEAFWSWVDSVKDKVLPKSKIGEAIQYALNNKEDFMNYLLDGNCSISNNLSENSIRPFTLGRKNWLFSGSPRGADASAAVYSIVESAKANDINPYKYLYYIFSELPGVQFGQNPEFLEDYLPWSPDVQAACK	soluble
GSSGARCYVDGSEEIGSDFKIKCEPKEGSLPLQYEWQKLSDSQKMPTSWLAEMTSSVISVKNASSEYSGTYSCTVRNRVGSDQCLLRLNVVPPSNK	soluble
MRLRVDVIPGEHLAYPDVVLVVDVIRATTTAAAFLEAGAEALYWTPSLESALAFKDEDVVLAGETGGLKPPRFDLGNSPREALSAQVAGRVVVMSTTNGTKAAHAAARTAKHVLLASLYNAHAAARLARELATEEVAILCAGKEGRAGLDDLYTAGVLAEYLGFLGEVEPEDGARVALAVKRAYPDPLEALSLSAAALALKQVGLEADVPFCAQVAKSAAVPVLRGRVGEALIFKRA	soluble
MLTSFGQILRKLFCIDCSERLLDMADKLGVSVAFLSSVKIGKKSVPVGIFVRTLENFSQQDLAEFKKLLEKVGKKRGTLYRHVGKSYSRTFIYTSRTLKKHT	not soluble
MGSDKIHHHHHHMTGKLPKACVIGAGCSGFTTIKRLKDYGIPYDCFEMSDEVGGNWYYKNPNGLSACYESLHIDTSKWRLAFEDFPVPKDWPDFPHHAQLFQYFKDYVDHFGLRPTITFNTKVESAKRTADGLWAVTLSGGETQFYDVLFVCNGHHWDPRVPEYPGEFDGPAFHAHAYCDPFDPVDMRGKNVVVVGMGNSAMDIASELSQRPIAKNLWVSARRGVWVFPKYLNGKPADKTALPAWMPRKLGVALSRSVLKKTIGRMEDYGLPKPDHEPLEAHPSVSGEFLTRAGCGDIKFKPAIKALEGKRVRFTDDSVEDVDAIVFATGYKISFPFFDDPALLPDADHRLPLFKRMMKPEVPNLFYMGLAQPLPTLVNFAEQQAKLAAAYLAGQYALPPPAEMARITAKDEHRHTGHFYDSARHTIQVDFNVYCADLKKEIAKGEARARNAGGKLPVAARAEGQALAAE	not soluble
MSLTNEKSTEEIALGIRRRVFFHTMKNNGGYLSQACSAAESLALLYNELLTLGEPTLPKVPLPFRGVPSAHNPDAFTGAGYHGPVGPNFDRFFISPAHYALVIYSVLIEMGRMDEHALDHFNKDGGSVEMIGAEHSPGMEVTTGSLAQGLSMASGVAWARLRKKEPGKVWVYMSDGEFQEGQTWECLAAMSYHKIDNIRVIVDVNRQQCDGAMSSVLDLGDLASRVASFGVTCRSVDGHDLGALRAAAESAEAGKPLVILANTSPYQGMDFLKKRFPRLHYVRFKSAEERQEMQTALAIELGIDLTAMERAEGHHHHHH	not soluble
HRPLNPAMVAFSNDPLLNDLALNSSYSLLFAVNNMKSEKSAEQFYGKMDNQKMLDLVRASSTKIDFDPTLLPTMNSNPATYQGKRKNLVILLQESLGAQFVGSLGGLPLTPNLDELMQEGWQFTQMYATGTRSVRGIEAVTTGFPPSPSRAVVKLSKSQTGFFTIADLLKEQGYHTQFIYGGEANFDNMKTFFFGNGFDQIVEEKNYTNPGFVGSWGVSDEDLYNKADEEFERLSKGDKPFFSLVFTSSNHSPYEYPEGKIEQYDSEHMTRNNAVKYSDYALGTFFDKAKKSSYWDDTIFIVIADHDARVFGANLVPVKHFHIPALIIGKDIQPRKDDRIANNIDMPPTLLSLIGVDAKTPMIGRDLTKPLAREDERAMMQYDKNFGYLTRDNLVVLSPGEKVSTMEYDFESQTMKPLEVDESVIDRAKANALFASKAYQNNWYSSKRTN	soluble
MNHYVYILECKDGSWYTGYTTDVDRRIKKHASGKGAKYTRGRGPFRLVATWAFPSKEEAMRWEYEVKHLSRRKKEQLVSLKGGPYENTTKLSTTMAGDPLEHHHHHH	soluble
MNTPNSSCTILFENLYDNDLALKLFNNRTIVDNILRNVKGDINNRLELRLVNKSFNLAAIHVIRKENRTVVFHKFNRCDRLHKISPCPDCSVHLNSVKLNKKNIFQYARFLKQTMKIMVIKIRIEDSKRVCCMITDVHQVIHKSLIGSDYDKVEEFVGIDQISFSTCIPCEKIAANCKVFGPVQNDMFNAILRLKHHYDVLQVKDMRLYKLMILNKEDPTVVEDFINSNITCSKLTIFLMYMYEKEAFGYSLPREFLDLLIKKWNVKTVEIVPRQDQPIPYYFHCNTDFIVPKAKFYVDYWTQPRSKYTLDGVEIDLQLTKVVEQQIKNRKSLFDNFIANARRIFPSNKITVRFSKEVCQEMMSQGNVEDFISGIILMTQKDAQPNSHISLKLYPEEVDAPLIDSFLRENFEKKFDSWNLETVSDSSANLPAEKCYQFFNQSTNCKIIFYICC	not soluble
TKAVHTKHAPAAIGPYSQGIIVNNMFYSSGQIPLTPSGEMVNGDIKEQTHQVFSNLKAVLEEAGASFETVVKATVFIADMEQFAEVNEVYGQYFDTHKPARSCVEVARLPKDALVEIEVIALVK	soluble
MGHHHHHHSHMLEPQENGVIDLPDYEHVEDETFPPFPPPASPERQDGEGTEPDEESGNGAPVPVPPKRTVKRNIPKLDAQRLISERGLPALRHVFDKAKFKGKGHEAEDLKMLIRHMEHWAHRLFPKLQFEDFIDRVEYLGSKKEVQTCLKRIRLDLPILHEDFVSNNDEVAENNEHDVTSTELDPFLTNLSESEMFASELSRSLTEEQQRRIERNKQLALERRQAKLLSNSQTLGNDMLMNTPRAHTVEEVNTDEDQKEESNGLNEDILDNPCNDAIANTLNEEETLLDQSFKNVQQQLDATSRNITEAR	soluble
VTVQDGNFSFSLESVKKLKDLQEPQEPRVGKLRNFAPIPGEPVVPILCSNPNFPEELKPLCKEPNAQEILQRLEEIAEDPGTCEICAYAACTGC	soluble
